These results are taken from IntAct's records for PubMed 11412997.

In this assay the target is par6_caeel par-6 (UniProt Q9NAN2).
Sequence of par6_caeel par-6 (Q9NAN2 whole entry): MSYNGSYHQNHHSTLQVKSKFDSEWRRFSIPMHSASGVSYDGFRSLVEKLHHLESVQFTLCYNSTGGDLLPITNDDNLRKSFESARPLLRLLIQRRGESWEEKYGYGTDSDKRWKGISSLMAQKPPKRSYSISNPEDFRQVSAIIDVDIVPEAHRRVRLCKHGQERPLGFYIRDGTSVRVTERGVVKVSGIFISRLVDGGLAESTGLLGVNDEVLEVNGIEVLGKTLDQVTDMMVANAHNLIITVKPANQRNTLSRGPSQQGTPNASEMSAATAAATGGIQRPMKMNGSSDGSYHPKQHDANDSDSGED

Sequence of Cell division control protein 42 homolog (Caenorhabditis elegans), Q05062 T17N (Q05062 whole entry T17N): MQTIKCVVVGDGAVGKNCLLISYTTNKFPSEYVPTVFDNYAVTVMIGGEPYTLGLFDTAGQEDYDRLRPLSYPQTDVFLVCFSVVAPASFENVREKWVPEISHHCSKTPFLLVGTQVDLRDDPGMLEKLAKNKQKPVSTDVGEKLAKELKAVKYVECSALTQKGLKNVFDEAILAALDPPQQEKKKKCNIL

Take “Cell division control protein 42 homolog (Caenorhabditis elegans), Q05062 T17N”: the “effect of a mutation on the interaction” value is listed as “disrupting interaction”.
